# Assay results from a protein production outcome set (Wang et al. 2014).
# Assay: label from the status in PepcDB records
row,Sequence,protein production
1,MMSDSPQKLGRNEWNAYMDKVKAKDREAFAFVFRFYAPKLKQFAYKHVGNEQVAMEMVQETMATVWQKAHLYDGKKSALSTWIYTIIRNLCFDLLRKQKGKELHIHSDDIWPSEYYPPDMVDHYSPEQDMLKEQVVKFLDILPKNQRDVLQAVYLEELPHQQVAELFDIPLGTVKSRLRLAVEKLRHSMHTEQL,failed
2,MMSEAIIHGIILAFGLIIPLGVQNVFVFNQGASQPNIWRAAPVVLTASICDTLLILIAVQGVSLVLLTFSWLTNSLYIIGFFFLLYMGFVIWRSNPSNDVKQEKSMPLKKQILFAASVSLLNPHAILDTIGVIGTNSIQYIGSEKWAFTLATIIVSWIWFISLALAGKFLKRLDSTGKTILLLNKFSGLIIWGVALYMLKQVIYS,failed
3,MMTETVRTWRHIPQRYNLTGSKCLQCGNVFFPSRIICPECRRKGKLEELKFSGKGRIHSYSVINTPTDEFKDIAPYVVAIVELEEGARVTSQIVDCDPDSIEIGDEVEMVFRKVREEGEDGVISYGFKFKPKT,failed
4,MMTLIRITSADDSRLNRLIPLYEESFPESERRKIGQLKRMIENHAPMYFNAIECDGELSGMFVYWDMGDFYYLEHLAVFPEMRNKKIGQQVLDYVAEHLKGVRLLEVEPTEDEMTTRRVNYYRRNGYEVLDKTYVQPSYHALEDACPLWIMGSEDSPRLAEQVERIKEEVYRQQVG,not failed
5,MMWESESDGGVGVGGGGGREYGDGVLSSNKHGGVKTDGFELRGQSWFVATDIPSDLLVKIGDMNFHLHKYPLLSRSGKMNRLIYESRDPDPTILILDDLPGGPEAFELASKFCYGVPVDLTATNISGLRCAAEYLEMTEDLEEGNLIFKTEAFLSYVVLSSWRDSILVLKSCEKLSPWAENLQIVRRCSESIAWKACSNPKGIRWAYTGKAPSPSTTNFAGSSPRWNESKDSSFYCSPSRNTNSQPVPPDWWFEDVSILRIDHFVRVITAIKVKGMRFELLGAVIMHYAGKWLPGLIKEGGVAIAPAMSSAIGGGLGLGGDEMSISCGSNSSGGSSGPDWKGGLHMVLSAGKTNGHQDSVACLAGLGISPKDQRMIVESLISIIPPQKDSVTCSFLLRLLRAANMLKVAPALITELEKRVGMQFEQATLQDLLIPGYNNKGETMYDVDLVQRLLEHFLVQEQTEGSSPSRMSPSPSQSMYADIPRGNNNNGGGGGGNNQNAKMRVARLVDSYLTEVARDRNLPLTKFQVLAEALPESARTCDDGLYRAIDSYLKAHPTLSEHERKRLCRVMDCQKLSMDACMHAAQNERLPLRVVVQVLFSEQVKISNALANTSLKESTTLGEAMGTYQPMIPNRKTLIEATPQSFQEGWAAAKKDINTLKFELETVKTKYVELQNEMEVMQRQFEKTGKVKNTPSSSAWTSGWKKLSKLTKMSGQESHDISSGGEQAGVDHPPPRKPRRWRNSIS,failed
6,MMYFISDTHFYHENIINLNPEVRFKGFEIVILTNLLKVLKPEDTLYHLGDFTWHFNDKNEYLRIWKALPGRKILVMGNHDKDKESLKEYFDEIYDFYKIIEHKGKRILLSHYPAKDPITERYPDRQEMVREIYFKENCDLLIHGHVHWNREGIKCACKDYRIECINANVEWNDYKPISEREIDKLISYEKAKN,not failed
7,MNAEHAVTLRAPAADWERSEREARQAAAYVAAFVGVPAVVAAAAALALFALTALVLLAPLVACVLTWAAWRYGRPERRGARRA,failed
8,MNAIRYTKRECKDEKKITEFLNKARTGFLGLSTNDQPYVIPLNFVWHNHAIYFHGASEGRKIKMIEANPEVCFTICEDLGTIVSPVPAHTDTAYMSVIIFGTIEPVSAIEEGTEAMQQMLDKYVPGYYHSPLAASHVEKYRSSLGSRTAIYKISCRERTAKVNEPIESLKFYPGRNVSVDKDSR,not failed
9,MNAKEILVHSLRLLENGDARGWCDLFHPEGVLEFPYAPPGWKTRFEGRETIWAHMRLFPEHLTVRFTDVQFYETADPDLAIGEFHGDGVATVSGGKLAQDYISVLRTRDGQILLYRDFWNPLRHLEALGGVEAAAKIVQGA,not failed
10,MNAKRWVALGIVFALLIVSALAKFTSSQIASTEESSPTFVESLFADTGELTETVIEEGGDDTIAVLSVDGTIQDTGDSGSLFGDAGYDHSFFMQQLEQVRNDDYIQGVLLYVNSPGGGVMESAQIRDKILQIQKERNIPFYVSMGSMAASGGYYISAPADKIFASKETLTGSLGVIMQGYDYSELMKKLGVSDNTIKSGEYKDIMSGTRPMTEDEKKIMQSMIDDSYNEFVKVVAKGRGMSAEKVRKIADGRIYDGRQAKENGLIDEFGYQEDALEALKKEQGLADATVIQYDVPEDFSSLFSVAAQKISGQNADISQLIKLTGTLKAPRMMYLYGE,failed
11,MNAPGLAIEGLGVAYGARTVIAGLSLGPLPHGTLTALLGPNGSGKSTLLKAVAGLLPARGGAIALDGQRLDQADLAQRAQQVAYLPQGLPADVHLRVFESVLVAARAHGGEAAGQIGPPAIAALLERLGIGHLALQFLDELSGGQKQLVGLAQALIRRPRVLLLDEPLSALDPNYQFHVMDLLRQETRDHGLITIAALHDINIALRHADQALLIRAGELAAAGEPAAVIDAPMLARVYGIQARVERCSRGHPHVLVDGVAGPVR,failed
12,MNAPTVFESFSPDSGGVKTQLIIRGQNFGTDTAYLKVTVNNKRAAIVGVADDVIYAIVPARADTGYVRLFVGKDDNVEEYASQTKFIYQFKRNVTTLMGRQGQSGRDDGPYAECKLQRPWFALADKDGALFFIDEGRGQNKNGALRRAQEGWVETLVQNSSGPFQSPTCLAFNPKQDTLYISNMSYGSDIKTSFNILYVTREGGFMDVKGLCKFEKAETQGLAVHPQTGEIFFCNKSGGYIYRFNGPDYEDYEPLFQINRADKIDTRMVFNPEGTALFVVVCNRHCIYKVPYNALTHTFGEPELFAGGWDESGYVNGSGVTARFDNPRQPAFDQDGNMFVPEYGRHTIRKITPTGEVSLYAGLPGQAGFTDGLPEKARFNKPECVTVYLDNSLYVADRDNHLIRRVTVELEHHHHHH,failed
13,MNAYSQSLAPANTPLRETFSLDGTWEFRHETDRAWRHAKVPAHWQACFEDLAVSFGSATYRRTFTLPAEWSAREIAIRFGAVSDLATVSINGTEIGRHEGGYLPFEFVIPPALLKAENTVEVLACLPDAYRDESGADFAEIPHGKQSWYGPQGGIWQSVLIEARDPAHISSLRLDPIWPEARLDLKARFASMVAGSLKIEIIGPQGMPVFTGNIPAAGNTLDHSIQLDSVAPWSPDSPNLYTITTILSADGVEIDSRQESFGFRRFEAKDGFLHLNGKPLYLRAALDQDYYPDGFGAPPSLDLLEDQLRKAKAMGLNCLRCHIKVPDPRYYEVADRLGMLIWSEIPNIETFTPASAERLRTTMEGILARDGNHPSIVIWTLINEDWGTRLREAAEQRQWISDMVDWLRVEDPLRLVVDNSACFPNVHVKTDINDYHFYRTAVDRREEWDTLCREFAGNADWTFSTEKEAVRTRKEPLVLSEFGVWGLPDPARLREKNGRDPWWMAYGATWADGTALPQGIEARFRELALEKVFGDLGRFIEKVQWYQYMNLKYEIEVIRTHAPIGGYVITELTDVHWEGNGLMDMARNPRVFAKALPAVNSDIVIAPGAARHAVYEGQTASFDIKVSSGGTALPEGSRLVWEFGAEKGEIPLPAMAPMQVHNAPITTTADAVPVPAIQKARFQVVSPDGSVLSQNFETLAVYGKRDALPPIRFASNDDGISERLSALGHVSVSPHEADVFITKDIDADRVEAIHSGQRVLQIVDKDPGRLRDDAPPRDGPMSIEIDPGAGGMVSGPYFSFPGYNLVNRHKSIWRGDWVGNFSWLRRDGVFAHVPGGPLFDLSFTGVAPHQVMTGLRPWEFQGRVYAGVVIGWVHKPAAFIIEKRLGRGKLVATTFRLHQEAPDVDPLATALYDGLFALATRP,failed
14,MNAYYIQDRLEAQSWARHYQQIAREEKEAELADDMEKGLPQHLFESLCIDHLQRHGASKKAITRAFDDDVEFQERMAEHIRYIVETIAHHQADIDSEV,failed
15,MNCIPQYYKNRVCLNVLAGSIKNAKEVYDACDGHVLIGVLSKNYSTVEAAIEDMKKYSKEIDNAISVGLGAGDPNQSNMVSQISKELQPQHINQVFTGVATSRALLGQNYSIINGLVSPTGKPGFVKISTGPLSSKEKDGIVPIETAIAMMKDMGGSSIKFFPMGGLKTKDEYIEVAKACAKHNFYLEPTGGIDLDNFKEIVQIALDAGVEKVIPHVYTSIIDKETGETKVEDIGVLYKIMKELLG,not failed
16,MNCRKTALLKTGRVARLVLCSAMLGAAIPTMALAIGGASGAHVDYQVQGKLGEVIMNPYDIAPLTAIIKNGGYVLKDVTVRIVPKKDGQEIKYQVANKHLLTHGGIPVFGMYPDYVNTVEVEYSRLYNGKWEQAKESYTLYTPPVYTEPNATKTQKAALFSGADVKKVDKKFSDRLYFVNNFLHKAGKGTRAVWNNPTGGALEWNYYPQNFIVDTKGEVRWYMNANPIYDLKSIYNAGVMMGFKQNNDGAMSWGFGQRYVKYDIMGKEVFNRELPAGYNDFSHSMDNSPNGNYFLRVGSSNLKRADGKNVRTVRDVIIEVDPSSGLVQDEWRLFDILDPYRDVNFKVLDQGAVCLNIDASKAGHTMSAEDLAKQDANDKFGDIVGVGPGRNWAHVNSVDHDAEDDSIIISSRHQSAVIKIGRDKQIKWIMGSPEGWKKEYQGKLLTPVDSKGNKIECEAGGSKCPGYENDEGGFDWTWTQHTAFKIDSKSKGDIIYVSVFDNGDSRGMEQPALPSMKYSRAVIYKIDQKKMTVEQIWEFGKERGNGWYSPVTSLTEYQTDKDSVFVYSATAGADFDINTGAFKTDPNPYIMEFNYGSKEPAVEIQLKDTTGYQAMPFSVDKAFTK,failed
17,MNDALHIGLPPFLVQANNEPRVLAAPEARMGYVLELVRANIAADGGPFAAAVFERDSGLLIAAGTNRVVPGRCSAAHAEILALSLAQAKLDTHDLSADGLPACELVTSAEPCVMCFGAVIWSGVRSLVCAARSDDVEAIGFDEGPRPENWMGGLEARGITVTTGLLRDAACALLREYNACNGVIYNARCGVHK,not failed
18,MNDHTAAIAAHFDQLAPNLDRWRRRNRTYYRDLEKLHRFWIPTGSRVLQVGSGLGDLLATVEPSFGIGIDVSPQAVAIAQQRHPQLQFHCLAAEELTPEAIGNPEPFDAIILTGVLSYLTDIQVVLEQLQAFCHPRTRLILGFHNFLWQPLLTAAEKVGQRSPQPPESWLGMQDVLNLLTLTGYEPIKQGRRFLLPRQIPLLTGWINRWISPLPVIEHLALTNYVIARPLAQPRSQPTVSVIVPARNEAGNIAAAVERLPELGAETELIFVEGHSRDQTWETIEQTVAEYQGPLKLLACRQTGKGKADAVRLGFDKASGDILMILDADLTVQPEDLGHFYRAIASGRGEFINGSRLVYPRSRLAMPGLNTLANRTFALIFSFLLGQPLKDTLCGTKVLWKTDYDRVAAGRKYFGDFDPFGDFDLLFGAAKLGLEIVEVPVRYQERSYGSSNIAHVREGLILARMCLYAAGKLKFPH,failed
19,MNDIILKSLSTLITEQRNPNSVDIDRQSTLEIVRLMNEEDKLVPLAIESCLPQISLAVEQIVQAFQQGGRLIYIGAGTSGRLGVLDASECPPTFGVSTEMVKGIIAGGECAIRHPVEGAEDNTKAVLNDLQSIHFSKNDVLVGIAASGRTPYVIAGLQYAKSLGALTISIASNPKSEMAEIADIAIETIVGPEILTGSSRLKSGTAQKMVLNMLTTASMILLGKCYENLMVDVQASNEKLKARAVRIVMQATDCNKTLAEQTLLEADQNAKLAIMMILSTLSKSEAKVLLERHQGKLRNALSK,not failed
20,MNDLKRLPYEPVKGLLPRPAVGTSERVITLPEPDRTSGMPLMGTLWLRKSTREFDQQPLPLKQLSELLWAAAGVNRSLGGGRTAPSPYGETVIDVYVALPAGLYRYDPVHHCLELKRAADLRSMTGYQDFVGMAPLDLVFVANHGRMQEMPPKLRETFSAAAAGAMAENAYLYCASAGLGAVVRGWLNRRQLAEHMSLNEDEEPILSQTIGRAASHVTTTQA,not failed
21,MNDNVLRYIKRVFNLITILGFVATIVGGIYLWRLGAFQNQAVLQQLIVAHRFLGPLIFLCMQILQVIVPIIPGGITMAAGVMIFGPVWGFVYNYFGIVAGSFLLFHFGKKYGSSLAKTFVKEKTYNKYMAWLDKGQKRFNIVFALLILSPIAPDDALVLIASQTKMSWKFFTWSILLCKPLPILLYSYLLIFGGDLLGHIL,failed
